Test results as given in PMC2708863.
pKd: −log10 of the molar value. Like-named read-outs stand apart in the source and are kept apart here.

Legend:
Test in all cases: NMR titration
[1] = molecular target: ^2–3FnI, human fibronectin residues 93–182 (human) (UniProt P02751)
[2] = molecular target: ^4–5FnI, human fibronectin residues 183–275 (human) (UniProt P02751)
[3] = molecular target: ^4–5FnI, human fibronectin residues 183–275 (human) (UniProt P02751); remark: listed apart in the source
[4] = molecular target: ^2–5FnI, second to fifth type I domains of human fibronectin (human)

Row | Substance | pKd [1] | pKd [2] | pKd [3] | pKd [4] | fractional saturation [4] [%]
1 | ^2FnIII, second type III domain of human fibronectin (domain or fragment) | 3.15 | 2.92 | 3.09 | – | –
2 | ^2–3FnIII, second and third type III domains of human fibronectin (domain or fragment) | – | – | – | 3.90 | 25
